These results are taken from paper PMC11488100, “PET imaging of CXCR4 expression using [^18F]AlF-NOTA-QHY-04 for hematologic malignancy and solid tumors” (Theranostics, 2024).

Molecules are shown by their SMILES. Bridge positions count the residues as written; N and C are the ends. Square brackets hold non-standard residues; d marks the D form. Peptide text beside a SMILES is read from it. * marks the point of attachment. NOTA = O=C(O)CN1CCN(CC(=O)O)CCN(CC(=O)*)CC1; 2Nal = N[C@@H](Cc1ccc2ccccc2c1)C(=O)O; Pen = CC(C)(S)[C@H](N)C(=O)O; 4Amb = NCc1ccc(C(=O)O)cc1; Ahx = NCCCCCC(=O)O

The test system of data set [1] is NCI-H69 subcutaneous tumor xenografts. Further details: species or system mice. Particulars: mouse, in vivo. On the procedure: The xenografted mice were injected with [^18F]AlF-NOTA-QHY-04 (3.70 ± 0.74 MBq) in about 150 μL saline via the tail vein. All the PET scans were performed with micro-PET/CT (IRIS PET/CT, Inviscan, France) and the radioactivity were expressed as %ID/mL. Detailed procedures for dynamic, static imaging and blocking studies are provided in the supplemental materials. Biodistribution studies were conducted using mice with xenografted A549/CXCR4 tumors with and without blocking (n = 3). The mice were sacrificed immediately after static PET/CT 1 h post injection (p.i.), then the tumors and organs were quickly collected, weighed and counted for radioactivity by a γ-counter. The γ-counter activity readings were background- and decay-corrected and represented as the percentage of injected dose per gram of tissue (%ID/g).
7.4, 150 mM NaCl, 0.005% tween-20) with continuous shaking at 1000 rpm. Biotinylated CXCR4 was immobilized on Super Streptavidin (SSA) biosensors by immersing the sensors in a protein solution of 35 µg/mL. […]
and 1 μM NOTA-QHY-04 sample) was prepared and flowed. […] Prior to fitting, the data were baseline-subtracted and analyzed using a 1:1 binding model and the ForteBio data analysis software. Mean Kd value was determined by applying a global fit to all the data. […]
NaOH. Finally, the cell lysates were collected and measured by an automatic gamma counter (2470 Wizard2, PerkinElmer). […]

For data set [2] the following is noted: in vivo; cited from earlier work. An excerpt:
(Figure 3A and 3B). In contrast, the blood, heart, liver, ...

Consider `C[C@H](NC(=O)[C@H](CCCNC(=N)N)NC(=O)CCCCCNC(=O)c1ccc(CNC(=O)CN2CCN(CC(=O)O)CCN(CC(=O)O)CC2)cc1)C(=O)N[C@@H]1CSSC(C)(C)[C@@H](C(=O)O)NC(=O)[C@H](Cc2c[nH]cn2)NC(=O)[C@H](Cc2ccc3ccccc3c2)NC(=O)[C@H](CCCNC(=N)N)NC1=O` [[^18F]AlF-NOTA-QHY-04] ({NOTA-4Amb-Ahx}-RA[dC]R[2Nal]H[Pen]-OH; disulfide 3-7), for which the “time of highest tumor uptake” value in data set [1] was “about 50 min”. For the same compound, in data set [2], the acute radiotoxicity entry is recorded as “no acute radiotoxicity”.
